# Experimental data reported in the supplement of paper PMC9170038.
# Tested on: MS2 coat protein
# Experiment: apparent KD of MS2 coat protein; designed switch direction (-1 OFF switch, 1 ON switch): 1; higher = weaker reporter binding
# Procedure, shortened: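 Designed RNA switches sharing common flanks were transcribed on Illumina chips by stalled E. coli RNA polymerase. They were titrated with SNAP-549-labelled MS2 coat protein, from 0.7 or 1.5 nM doubling to 3 µM, in Tris-HCl pH 7.5 buffer with KCl, MgCl2, BSA, DTT, tRNA and Tween-20. Titrations ran without input, with 200 uM small-molecule ligand, or with an oligonucleotide input. The apparent KD of each design is the median over its clusters, after curve-fitting of normalised cluster fluorescence.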
# [1] = Eterna round: R95, input ligand: FMN 200 uM
# [2] = Eterna round: R95, input ligand: microRNA oligo, concentration not stated
# [3] = Eterna round: R95, input ligand: none
# [4] = input ligand: microRNA oligo, concentration not stated
Sequence,apparent KD of MS2 coat protein [1],apparent KD of MS2 coat protein [2],apparent KD of MS2 coat protein [3],apparent KD of MS2 coat protein (input ligand: FMN 200 uM),apparent KD of MS2 coat protein [4],apparent KD of MS2 coat protein (input ligand: none)
AGUCCAGGCUGACCUGGACAAAAGCAUGUACAUGAGGAUCACCCAUGUCAUGUACAAGCUUUUUGCUCGUCUUAAAA [Mat - hsa-mir-208a - Mod of JL - D16] (puzzle: Sensor for hsa-mir-208a),701 nM,14.3 nM,637 nM,–,–,–
"UUCUCCUUUUUUUACAUGAGGAUCACCCAUGUUUUUCUUACGUAGGAUAUCGUUGUUUUUUUUUACGAGAAGGACGUAGUAAGU [JR_SSND3_Sub060] (Eterna round: R96, puzzle: Same State NG 3)",–,–,–,31.5 nM,25.8 nM,36.2 nM
"AGGACGAGCACAGGAUAUCCGCGGAACAGCCGCGGAGAAGGGUGAAGUCAUGGAAAGAAAAGACAUGAGGAUCACCCAUGUAAA [Ageteerer] (Eterna round: R96, puzzle: Same State NG 1)",–,–,–,223 nM,1320 nM,680 nM
GAGGGACAUGAGGAUCACCCAUGUGGUAAAUUUAAAGGAUAUUAGUGUGGGAAAGUAGGGUAAGAAGGUUGAUUGG [JR_SS1_Sub086] (puzzle: Same State 1),–,87.7 nM,–,–,–,–
AACAAUCUAUCUGAGGAUAUCAUGAAAUAAACAUGAGGAUCACCCAUGUGCAGGAAAACUGCAUUUGAGAAGGCAGAUAGAUUGA [salish99_ss2_r3_048] (puzzle: Same State 2),14.6 nM,106 nM,67.2 nM,–,–,–
AUAAAACAUGAGGAUCACCCAUGUCAACAAAGUCGAGGAUAUGGGCUAAUAAAAUAAGAACCAGAAGGCGAAUAAU [salish99_ss1_r3_027] (puzzle: Same State 1),26.2 nM,152 nM,146 nM,–,–,–
CGUCCGGCCUGUGCUGGCCGGAAGCAUGUACAUGAGGAUCACCCAUGUUCUUGUGCAGGCUUUUUGCUCGUCUUGUG [salish99_mir208a_010] (puzzle: Sensor for hsa-mir-208a),24.9 nM,14.7 nM,22.2 nM,–,–,–
"AUUACUAACAUAGGAUAUCAUGCGAAAAUUGCGUGAGAAGGGUGGACGCUGUCAUUCACGGAAGACAUGAGGAUCACCCAUGUC [SameState NG1 #73] (Eterna round: R96, puzzle: Same State NG 1)",–,–,–,170 nM,70.5 nM,119 nM
CGUCCGGCCUGUGCUGGCCGGAAGCAUGUACAUGAGGAUCACCCAUGUUCAUGUGCAGGCUUUUUGCUCGUCUUGUG [salish99_mir208a_r3_006] (puzzle: Sensor for hsa-mir-208a),41.3 nM,12.4 nM,39.4 nM,–,–,–
"GUACAGAUUAUAGGAUAUCACGUCGAAUAGACGUGAGAAGGAUAAUCCCACAUGAAUAUUAAUACAUGAGGAUCACCCAUGUAC [SSNG1/18-B1] (Eterna round: R96, puzzle: Same State NG 1)",–,–,–,16.8 nM,19.8 nM,20.4 nM
"UUAUCUCUUACAUGAGGAUCACCCAUGUUUUUAUGUCUUAGACAGGAUAUAGUAGUCUCGUAUUACUAGAAGGGUCUUUUUAUU [JR_SSNG3_Sub020] (Eterna round: R96, puzzle: Same State NG 3)",–,–,–,18.7 nM,22.4 nM,26.4 nM
AGAGCCGGCACUGAGGAUAUUCAUAAUAAAACAUGAGGAUCACCCAUGUAGGCCAGAAGGCCUUGGGAGAAGGCAGGUCGGCUCG [Mat - Same State 2 - Mod of UCT - D68] (puzzle: Same State 2),17.3 nM,122 nM,200 nM,–,–,–
"GUAGCAUACCGAGGAUAUUCUACAUGAGGAUCACCCAUGUUUAAUAGGCCACAUUAGUGGCCUUGGGAGAAGGCGGAAUGCUAC [Xeonanis - 20 Mod47] (Eterna round: R96, puzzle: Same State NG 2)",–,–,–,13.6 nM,12.7 nM,19.8 nM
"GGUAGGUUACUACCAAACAUGAGGAUCACCCAUGUUAAUGGGAAGGAUAUGGUACCUAUUUGGUACCAGAAGGUCCAAAUAAUU [Mat - Same State NG 3 - JL Mod - D97] (Eterna round: R96, puzzle: Same State NG 3)",–,–,–,73.2 nM,261 nM,596 nM
"CACAUGAGGAUCACCCAUGUGAGGCGGCAAUAAAGCCGCGCACAGGAUAUAGCGCUAUGAAUGCGCUAGAAGGGUGAUUAGAAC [Reines] (Eterna round: R96, puzzle: Same State NG 3)",–,–,–,240 nM,59.9 nM,36.5 nM
"UAAGGACAUGAGGAUCACCCAUGUGCUUCAUAUGGAGAAUCUCAGGAUAUCCUGAGGAUCACCCAGGAGAAGGGAGAUCCGAGG (Eterna round: R96, puzzle: Same State NG 3)",–,–,–,288 nM,191 nM,225 nM

Sequence,apparent KD of MS2 coat protein [1],apparent KD of MS2 coat protein [2],apparent KD of MS2 coat protein [3],apparent KD of MS2 coat protein (input ligand: FMN 200 uM),apparent KD of MS2 coat protein [4],apparent KD of MS2 coat protein (input ligand: none)
"AGAUGUUAAUCAGGAUAUGGGCACAUGAGGAUCACCCAUGUAAAUUAGAUACUAUGUGGUCAAGUCUAGAAGGGAUGGCUAACA [SameState NG2 #81] (Eterna round: R96, puzzle: Same State NG 2)",–,–,–,346 nM,145 nM,182 nM
AACAAUCUAUCUGAGGAUAUCAUGAAAUAAACAUGAGGAUCACCCAUGUGCAGGAAAAUUGCAUAUGAGAAGGCAGAUAGAUUGA [salish99_ss2_r3_044] (puzzle: Same State 2),37.9 nM,771 nM,669 nM,–,–,–
"AAGUGGAACUGAGGAUAUGGCAUCCGAACAUGAGGAUCACCCAUGUAGUUAGGAAAAGAACGGAGCCAGAAGGUAGGACUCCGC [Soqube] (Eterna round: R96, puzzle: Same State NG 2)",–,–,–,10.6 nM,9.65 nM,15 nM
GGUAUACAUGAGGAUCACCCAUGUCGUAUGACAUGAGGAUAUGUACAGACUUCGGUCUGUACAGAAGGCGUGUGUC [SS1 - 1011 Omei Mod 6] (puzzle: Same State 1),–,307 nM,–,–,–,–
ACAGCGAAACAUGAGGAUCACCCAUGUAAAGAAUAGGUGAAUUGUUGCUCGUCUUGAAGAGAAGAGAAGAAGGAGAG [Victory 1] (puzzle: Sensor for hsa-mir-208a version 2),192 nM,101 nM,180 nM,–,–,–
"AGCUAUUAAUCAGGAUAUAGGGACAUGAGGAUCACCCAUGUAUACAUGAUGAAAUGUGGUCACCUCUAGAAGGGAUUACUAACA [SameState NG2 #42] (Eterna round: R96, puzzle: Same State NG 2)",–,–,–,155 nM,109 nM,178 nM
"GUGGUCAGACAUGAGGAUCACCCAUGUGGAAUAAAUAACGGACAGGAUAUGCAAUAUAGGAUAUAGUAGAAGGGUUGAUUGGUG (Eterna round: R96, puzzle: Same State NG 3)",–,–,–,–,49.3 nM,–
UAGAGAGGAAGCGAGGAUAUCGUGUUAGGUACAUGAGGAUCACCCAUGUUUUAAGUAGAGAUAGGCGAGAAGGCGCAGGAGAAGA [JR_SS2_Sub089] (puzzle: Same State 2),38 nM,20.1 nM,28 nM,–,–,–
"UUGAAGAAUUAAGGAUAUUGAGUACAUAUGUUAAACAUGAGGAUCACCCAUGUGGGUUGCGGUAUCGAGAAGGUAAAUUACUAG [Mat - same State NG 2 - JL mod - D68] (Eterna round: R96, puzzle: Same State NG 2)",–,–,–,90.9 nM,46.8 nM,70.8 nM
CUCAAAACAAGUUGCAGUGUUCGUCUUUCACAUGAGGAUCACCCAUGUAAUAGCCCAGUGGAAGCGCUCGGGCCACC [Ditixe] (puzzle: Sensor for hsa-mir-208a),55.3 nM,28.9 nM,47.4 nM,–,–,–
GAGUAGGACUUACAGGAUAUAUGGAGGUUGACAUGAGGAUCACCCAUGUCUGAGUUGGGAGGAGGAUAGAAGGGUAUGAGAGGCG [JR_SS2_Sub031] (puzzle: Same State 2),27.1 nM,23.3 nM,22.8 nM,–,–,–
"UUUUCGAACCGAGGAUAUCCUUAUAAGAAACAUGAGGAUCACCCAUGUAAAGGGAAUUAUUUGAAGGAGAAGGCGGAUUUUGUU [JR_SSNG2_Sub053] (Eterna round: R96, puzzle: Same State NG 2)",–,–,–,–,33.5 nM,–
"UUAAUUAAUUAAUUAUACAUGAGGAUCACCCAUGUAAGUGAUCAGGAUAUCAGCUCGAAUAGAGCUGAGAAGGGAUACAUGAAU [SSNG3/12-A1] (Eterna round: R96, puzzle: Same State NG 3)",–,–,–,–,101 nM,–
"GAGCUCGUGUGAGGAUAUGCCGCCGUUUCGGCUGCAGAAGGUGCUACGUUACAUGAGGAUCACCCAUGUCUCUGUUGUUUCGUU [salish99_SSNG1_r04_959] (Eterna round: R96, puzzle: Same State NG 1)",–,–,–,18.5 nM,17 nM,24.9 nM
"GCUAGAAAUAAAGCCAACAUGAGGAUCACCCAUGUAUGUUGGCAGGAUAUCGUUUGCAAAGCAAACGAGAAGGGCUAAACUAGC [Mat - Same State NG 3 - JL Mod - D5] (Eterna round: R96, puzzle: Same State NG 3)",–,–,–,141 nM,138 nM,147 nM
"GCGAGCGUACUUGCAGACAUGAGGAUCACCCAUGUAAAUGGGAAGGAUAUGGUACCGUUUCGGUACCAGAAGGUCCUAAGUGAU [salish99_SSNG3_r04_301] (Eterna round: R96, puzzle: Same State NG 3)",–,–,–,665 nM,1080 nM,1130 nM
